From the supplement of paper PMC9170038

tested on: K4 kissing-loop RNA reporter; test: apparent KD of K4 kissing-loop reporter; higher = weaker reporter binding; settings: Eterna round: R107; input ligand: theophylline 20 uM
Experimental: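 RNA-MaP round R107: designed RNA switches with theophylline, tryptophan, arginine or FMN aptamers are transcribed on-chip within common flanks. They are titrated with a labelled K4 kissing-loop RNA reporter in RNA-MaP buffer (100 mM Tris pH 7.5, 80 mM KCl, 4 mM MgCl2), without ligand or with the indicated ligand. Median apparent KD per design.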
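Note: bound reporter read as fluorescence of individual clusters on recovered sequencing chips by microscopy, with normalized cluster intensities fitted with a binding model.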

**Q.** “GCAGUGAUGUUGCGGAUGUACAGUGGGAUACGAGGACCGGUACGGCCGCCACUCGUACAGAACAAGCUAAUACAUCGAUAGGUGA [XII]” was tested. Which “apparent KD of K4 kissing-loop reporter” value did it give?
**A.** The value was 373 nM.

**Q.** With “GCAGUGAUGUUGCGGAUGUACAGUGGCGUGCGAGGACCGGUACGGCCGCCACUCGUACAGCACAAGCUAAUACAUCGAUAGGUGA [whbob_SS_Tryp_A_m2]” as the sequence, how does the “apparent KD of K4 kissing-loop reporter” value read?
**A.** Its value is 380 nM.

**Q.** Which “apparent KD of K4 kissing-loop reporter” value does the source give for “UGCGCUGUGUACUGAAAUGUUAUGCGGGAUACCAGAGUCUUUUUAUUCCCUUGGCAGCUUGAGUGAUGUUUGAUGCCGUUCUUGU [po,,mmullin]” here?
**A.** Its value is 577 nM.

**Q.** With “GUCUCGAGUGAUGUUCGGGUCGAUUGGGAAGGAGCGCCCGGAAGGGCAGGUAGGUCGCCCGGACCGCGCGGGCAACCGCGCGGCC [#2 Same State - Arginine A Attempt #11 (HarryS)]” as the sequence, how does the “apparent KD of K4 kissing-loop reporter” value read?
**A.** Its value is 141 nM.

**Q.** For “GCCAUCAGGUCGCAAGACCUGAUAGCCGAUACCAGCGCGAAGGUGCGCCCUUGGCAGCGGCACCGAGUGAUGUUCGGUCAGGCGG [#2 Same State - Theophylline A Attempt #3 (HarryS)]”, which “apparent KD of K4 kissing-loop reporter” value is on record?
**A.** Its value is 291 nM.

**Q.** How did the “apparent KD of K4 kissing-loop reporter” value turn out when “CUUAAGGAGUGUCGUGCCGGACACUGGGAAGGAGCGCAAUUCUUUGCAGGUAGGUCGCCCAGUGAUGUUGGGUGGCGCUGUCGAA [Laatonbi]” was run?
**A.** Its value is 156 nM.

**Q.** For “GCGAACAUUCGCAGUGAUGUUGCGACGGAAGGAGCGCGUGAAAACGCAGGUAGGUCGCCGACAAAAUUAAUUUUAAUGUGUUCGC [Arginine A K4 27]”, which “apparent KD of K4 kissing-loop reporter” value is on record?
**A.** The value was 471 nM.

**Q.** “UGUGUUGUUGUGAUGUUUAGUGUUGUUGGGCAGGAUAUCGUAGAGGCGAGAAGGGCUUGUGUGCUGUAUGAGUGAUGUUUGUAGG [xrrxmullin]” was tested. Which “apparent KD of K4 kissing-loop reporter” value did it give?
**A.** The value was 262 nM.

**Q.** How did the “apparent KD of K4 kissing-loop reporter” value turn out when “AGAACUGUCUGAGAUACCAGCCAUAGGAGUGAUGUUCCUAGCUCCACAAAGUGGAGCCAUGGCCCUUGGCAGCUCAGACAGUUCA [Omei KL Theo B SS A v8]” was run?
**A.** The value was 133 nM.

**Q.** How did the “apparent KD of K4 kissing-loop reporter” value turn out when “AAAAUAAACCAGUGAUGUUGGUGUCCAGAUACCAGCGACAAAAGUCGCCCUUGGCAGCUGUGGACGUACAAAAUAAGUACGUCCU [MatMod 1 - Jieux - Same State - Theophylline A]” was run?
**A.** The value was 256 nM.

**Q.** “AGGUCCGAGCCCGUAAGGGCUCGGACCUGUUAGGAUAUGACGUUAUUCAGAAGGGAUGGGUGGAGUGAUGUUCCACCCGCAAGGG [#2 Same State - FMN A Attempt #10 (HarryS)]” was tested. Which “apparent KD of K4 kissing-loop reporter” value did it give?
**A.** The value was 91.7 nM.

same assay, conditions: Eterna round: R107; input ligand: tryptophan 2.4 mM

**Q.** With “UUAUCUAUAUUCGAUACCAGUACCCUGUGUGUUGAUCCUUUUAUAAGUGAUGUUUAUGAGUACCCUUGGCAGCGGGUAUGGGUUU [KL-XTheo-B17]” as the sequence, how does the “apparent KD of K4 kissing-loop reporter” value read?
**A.** The value was 712 nM.

**Q.** Which “apparent KD of K4 kissing-loop reporter” value does the source give for “GGGAGUAGUGCGGCCGCCACUGAGAAAGAAGAAGAAUAUAGUGAUGUUAUAUAGGAAGGGAAGAACAGGACCGGGCAUUAGAUUU [SSTRyptB.Y]” here?
**A.** Its value is 222 nM.

**Q.** For “UGUGAACAAAAGUAGAGUGGACCACUAUAGCGAGGACCGGUACGGCCGCCACUCGUGUAUGAAUUCAGUGAUGUUGAAAAGAGCU [whbob_EX_Tryp_A_t11]”, which “apparent KD of K4 kissing-loop reporter” value is on record?
**A.** Its value is 134 nM.

**Q.** With “CAUACGCAUGGAGGAUAUGAGAUUACUCAUAUCAUUUAAUAUUCUCAGUGAUGUUGAGAUUUAAACUCAGAAGGCCAUGUGUAUG [Ex FMN B 12]” as the sequence, how does the “apparent KD of K4 kissing-loop reporter” value read?
**A.** The value was 380 nM.

**Q.** With “AAACAUCACUGGGAGUGAUGUUCUCAGUGACGAGGACCGGUACGGCCGCCACUCGCGAGAGAUAUAAAUGAGUAAUGACAUCAUU [Excl Tryptophan A V2]” as the sequence, how does the “apparent KD of K4 kissing-loop reporter” value read?
**A.** Its value is 325 nM.

**Q.** Which “apparent KD of K4 kissing-loop reporter” value does the source give for “UACUGGGCGAGUGAUGUUCGCUCACGUGAUACCAGUGCCAUCCAACACCCUUGGCAGCACGCGGGCAGUGAUGUUGUCCUUGUAU [Exclusion Theophylline A GF 5]” here?
**A.** Its value is 111 nM.

**Q.** With “GCCGUAGAUUGAAGGAGCGUUCUUCAGCAAACUUGCAGUGAUGUUGCAUUAAACAUGUAAGAACAGGUAGGUCGCAAUCUACGGC” as the sequence, how does the “apparent KD of K4 kissing-loop reporter” value read?
**A.** The value was 121 nM.

**Q.** With “CUAACGGUACGAGUGAUGUUCAGCAAGGAUACCAGCGGACAGUCACGCCCUUGGCAGCCUAGUUUCUACCCGUCGGAAUUUCUUA [theeternabot_sameState_KL_Theo_A_2]” as the sequence, how does the “apparent KD of K4 kissing-loop reporter” value read?
**A.** Its value is 527 nM.

**Q.** For “UUUGUAUAGGGAAGGAGCGUGAAUGAUAAUGAAUAUAGUGAUGUUAUAUAGAAGAAAGAAUCACAGGUAGGUCGCCCGGAGGAGG [SSArgB.I]”, which “apparent KD of K4 kissing-loop reporter” value is on record?
**A.** The value was 247 nM.

**Q.** For “GGGCGCGGCGCGGCCGCCACUGGGCCUGGGCGCGCGCCGAGUGAUGUUCGCCUGCGGCUGGGUCGUAGGACCGGGUGCCGGCUGG [BDazzled 1]”, which “apparent KD of K4 kissing-loop reporter” value is on record?
**A.** Its value is 188 nM.

**Q.** How did the “apparent KD of K4 kissing-loop reporter” value turn out when “AAUGUACAGGGAAGGAGCGUAGUCCAGUGAUGUUGGAAUUAAAUUCCUGCGAUGUUGGUUAUACAGGUAGGUCGCCCUAAAGUGC [KL-XARG-B22]” was run?
**A.** Its value is 344 nM.

**Q.** For “CCCGGGUCGUCAGGAUAUGAGUGCAGUGAUGUUGCACGGGUCUUUGCAGGCCCUGGUGAGGCGUACUCAGAAGGGACGCCAGGUC [Atazazaed]”, which “apparent KD of K4 kissing-loop reporter” value is on record?
**A.** The value was 133 nM.

**Q.** Which “apparent KD of K4 kissing-loop reporter” value does the source give for “UAAGAAUAAGUAGCAGUGAUGUUGCUACUGCGAGGACCGGUACGGCCGCCACUCGAGUCCUCGAAGCAUCACUGAACGAGGAAUA [whbob_SS_Tryp_A_m12]” here?
**A.** The value was 360 nM.

**Q.** With “GCCUAGCAGGGAAGGAGCGCCAUAUAAUUAAAAGUUAAUUAAUGAGUGAUGUUCAAAUAAUGGCAGGUAGGUCGCCCUGCUAGGC [KL-SSArg B9]” as the sequence, how does the “apparent KD of K4 kissing-loop reporter” value read?
**A.** The value was 323 nM.

**Q.** “AAGUAGCUCUCGGCCGCCACUCCUCAGUGAUGUUGAGAUAUUAAGAGCCAAUUGGCUCAUAUAAAGAGGACCGGGAGAGCUACAA [AK4 SS Tryptophan B]” was tested. Which “apparent KD of K4 kissing-loop reporter” value did it give?
**A.** The value was 128 nM.

**Q.** For “AGACUACCACACUGUCAAUAGACAGUGGACUAGGAUAUGCUGAUAAGCAGAAGGAGUGAUGUUCCAAGGUAGUCAAUAAAAUAAU [FmnAX 13 G28+A66]”, which “apparent KD of K4 kissing-loop reporter” value is on record?
**A.** The value was 279 nM.
